B1: SOAT1 (parent)
chain: PSNGRIDIKQLIAKKIKLTAEAEE

Variants of: B1
Assay: protein stability index of a GFP-peptide fusion (GPS, HEK-293T) (PSI 1-6); higher = more stable
Conditions: c terminus: a fixed tail appended
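Note: lentivirally expressed fusions sorted by FACS into six bins by GFP to DsRed ratio, PSI derived from sequencing read proportions per bin multiplied by bin number.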

In order of rising protein stability index:
1. PSNGRIDIKQLIAKLIKLTAEAEE [K15L]  1.87
2. PSNGRIDIKQLIALKIKLTAEAEE [K14L]  2.24
3. PSNGRIDIKQLIAKVIKLTAEAEE [K15V]  2.42
4. PSNGRIDIKQLIAKFIKLTAEAEE [K15F]  2.47
5. PSNGRIDIKQLIAKIIKLTAEAEE [K15I]  2.48
6. PSNGRIDIKQLIAKCIKLTAEAEE [K15C]  2.5
7. PSNGRIDIKQLIAYKIKLTAEAEE [K14Y]  2.62
8. PSNGRIDIKQLIAFKIKLTAEAEE [K14F]  2.63
9. PSNGRIDIKQLIAKWIKLTAEAEE [K15W]  2.63
10. PSNGRIDIKQLIAKYIKLTAEAEE [K15Y]  2.69
11. PSNGRIDIKQLIAIKIKLTAEAEE [K14I]  2.71
12. PSNGRIDIKQLWAKKIKLTAEAEE [I12W]  2.78
13. PSNGRIDIKQLICKKIKLTAEAEE [A13C]  2.82
14. PSNGRIDIKQLIWKKIKLTAEAEE [A13W]  2.83
15. PSNGRIDIKQLIVKKIKLTAEAEE [A13V]  2.84
16. PSNGRIDIKQLIAKKIILTAEAEE [K17I]  2.84
17. PSNGRIDIKQLIAAKIKLTAEAEE [K14A]  2.88
18. PSNGRIDIKQLIAKRIKLTAEAEE [K15R]  2.88
19. PSNGRIDIKQLIFKKIKLTAEAEE [A13F]  2.94
20. PSNGRIDIKQLIAMKIKLTAEAEE [K14M]  2.96
21. PSNGRIDIKQLIYKKIKLTAEAEE [A13Y]  2.97
22. PSNGRIDIKQLIAKKFKLTAEAEE [I16F]  2.97
23. PSNGRIDIKQLIAVKIKLTAEAEE [K14V]  2.98
24. PSNGRIDIKQLIAKKIHLTAEAEE [K17H]  3.02
25. PSNGRIDIKQLIAKKICLTAEAEE [K17C]  3.05
26. PSNGRIDIKQLIAWKIKLTAEAEE [K14W]  3.07
27. PSNGRIDIKQLITKKIKLTAEAEE [A13T]  3.08
28. PSNGRIDIKQLIAKKIMLTAEAEE [K17M]  3.1
29. PSNGRIDIKQLIAKMIKLTAEAEE [K15M]  3.11
30. PSNGRIDIKQLIMKKIKLTAEAEE [A13M]  3.12
31. PSNGRIDIKQLIAKKILLTAEAEE [K17L]  3.12
32. PSNGRIDIKQLILKKIKLTAEAEE [A13L]  3.13
33. PSNGRIDIKQLIAKTIKLTAEAEE [K15T]  3.13
34. PSNGRIDIKQLIAKKIFLTAEAEE [K17F]  3.15
35. PSNGRIDIKQLIAKKYKLTAEAEE [I16Y]  3.16
36. PSNGRIDIKQLIAKHIKLTAEAEE [K15H]  3.17
37. PSNGRIDIKQLIAKKWKLTAEAEE [I16W]  3.18
38. PSNGRIDIKQLIAKAIKLTAEAEE [K15A]  3.19
39. PSNGRIDIKQLYAKKIKLTAEAEE [I12Y]  3.19
40. PSNGRIDIKQLIAQKIKLTAEAEE [K14Q]  3.22
41. PSNGRIDIKQLIARKIKLTAEAEE [K14R]  3.22
42. PSNGRIDIKQLIAKKLKLTAEAEE [I16L]  3.22
43. PSNGRIDIKQLIIKKIKLTAEAEE [A13I]  3.3
44. PSNGRIDIKQLIAKKCKLTAEAEE [I16C]  3.31
45. PSNGRIDIKQLIATKIKLTAEAEE [K14T]  3.34
46. PSNGRIDIKQLINKKIKLTAEAEE [A13N]  3.35
47. PSNGRIDIKQLISKKIKLTAEAEE [A13S]  3.36
48. PSNGRIDIKQLIACKIKLTAEAEE [K14C]  3.37
49. PSNGRIDIKQLIHKKIKLTAEAEE [A13H]  3.41
50. PSNGRIDIKQLIAHKIKLTAEAEE [K14H]  3.46
51. PSNGRIDIKQLIQKKIKLTAEAEE [A13Q]  3.47
52. PSNGRIDIKQLIKKKIKLTAEAEE [A13K]  3.48
53. PSNGRIDIKQLVAKKIKLTAEAEE [I12V]  3.48
54. PSNGRIDIKQLIAKKIQLTAEAEE [K17Q]  3.5
55. PSNGRIDIKQLIAKKMKLTAEAEE [I16M]  3.51
56. PSNGRIDIKQLIAKKQKLTAEAEE [I16Q]  3.52
57. PSNGRIDIKQLIGKKIKLTAEAEE [A13G]  3.54
58. PSNGRIDIKQLIAKKIGLTAEAEE [K17G]  3.55
59. PSNGRIDIKQLIEKKIKLTAEAEE [A13E]  3.56
60. PSNGRIDIKQLIRKKIKLTAEAEE [A13R]  3.57
61. PSNGRIDIKQLIANKIKLTAEAEE [K14N]  3.59
62. PSNGRIDIKQLIAKSIKLTAEAEE [K15S]  3.59
63. PSNGRIDIKQLIAKKINLTAEAEE [K17N]  3.61
64. PSNGRIDIKQLIAKKIELTAEAEE [K17E]  3.62
65. PSNGRIDIKQLIAGKIKLTAEAEE [K14G]  3.63
66. PSNGRIDIKQLIAKKRKLTAEAEE [I16R]  3.65
67. PSNGRIDIKQLIAKKIALTAEAEE [K17A]  3.67
68. PSNGRIDIKQLIAKKVKLTAEAEE [I16V]  3.75
69. PSNGRIDIKQLIAKKHKLTAEAEE [I16H]  3.78
70. PSNGRIDIKQLIAKKPKLTAEAEE [I16P]  3.81
71. PSNGRIDIKQLSAKKIKLTAEAEE [I12S]  3.82
72. PSNGRIDIKQLIAKKIPLTAEAEE [K17P]  3.84
73. PSNGRIDIKQLIASKIKLTAEAEE [K14S]  3.84
74. PSNGRIDIKQLIAKQIKLTAEAEE [K15Q]  3.87
75. PSNGRIDIKQLTAKKIKLTAEAEE [I12T]  3.89
76. PSNGRIDIKQLIAKKSKLTAEAEE [I16S]  3.9
77. PSNGRIDIKQLIPKKIKLTAEAEE [A13P]  3.94
78. PSNGRIDIKQLIADKIKLTAEAEE [K14D]  3.96
79. PSNGRIDIKQLIAKKIDLTAEAEE [K17D]  4.01
80. PSNGRIDIKQLIAKKKKLTAEAEE [I16K]  4.01
81. PSNGRIDIKQLIAKKNKLTAEAEE [I16N]  4.02
82. PSNGRIDIKQLIAEKIKLTAEAEE [K14E]  4.04
83. PSNGRIDIKQLIAKKAKLTAEAEE [I16A]  4.04
84. PSNGRIDIKQLIAKNIKLTAEAEE [K15N]  4.05
85. PSNGRIDIKQLIAKGIKLTAEAEE [K15G]  4.05
86. PSNGRIDIKQLIDKKIKLTAEAEE [A13D]  4.08
87. PSNGRIDIKQLIAKKTKLTAEAEE [I16T]  4.1
88. PSNGRIDIKQLIAKPIKLTAEAEE [K15P]  4.22
89. PSNGRIDIKQLIAKDIKLTAEAEE [K15D]  4.25
90. PSNGRIDIKQLIAPKIKLTAEAEE [K14P]  4.38
91. PSNGRIDIKQLIAKKDKLTAEAEE [I16D]  4.42
92. PSNGRIDIKQLIAKKEKLTAEAEE [I16E]  4.45
93. PSNGRIDIKQLIAKKGKLTAEAEE [I16G]  4.5
94. PSNGRIDIKQLIAKEIKLTAEAEE [K15E]  4.52

Reference: the supplement of paper PMC10567573
